Three substances from patent publication US5593882 can be followed below.

The target in assay [1] is P-Selectin-IgG chimera (human) (UniProt P16109). Put plainly: capture ELISA, mAb coated.
The target of assay [2] is E-Selectin-IgG chimera (wild type) (human) (UniProt P16581). Put plainly: capture ELISA, mAb coated. (ELISA stands for enzyme-linked immunosorbent assay.)
Another assay addresses PE-1 chimera (human) (UniProt P16581). The assay can be described thus: capture ELISA, mAb coated.
Assay [3] addresses P-Selectin-IgG REKDV mutant (human) (UniProt P16109). Put plainly: capture ELISA.
Assay [4] deals with P-Selectin ligand on HL60 cells and human neutrophils (human). Put plainly: flow cytometry, staining of HL60 cells.

mAb AK-6 (CLB-thromb/6) (antibody): the figures for the O.D. 450 (in assay [1]; in assay [2]; in the assay with PE-1 chimera (human)) were 1.3 O.D. 450, 0 O.D. 450 and 1.7 O.D. 450, respectively. This substance also gave a percent of control P-Selectin-IgG binding in assay [3] of 70%.
Regarding “P-Selectin-IgG chimera (from UniProt P16109) (Fc fusion)”, in assay [4], the % cells positive was 97% and the MFI was 416 MFI.
mAb AC 1.2 (antibody): the O.D. 450 in assay [1] came to 2.8 O.D. 450; in assay [2], 0 O.D. 450; with PE-1 chimera (human), 0.1 O.D. 450. In assay [3], this substance gave a percent of control P-Selectin-IgG binding of 70%.
